Test results taken from the supplement of paper PMC9170038.

Test system: MS2 coat protein
Assay: apparent KD of MS2 coat protein; designed switch direction (-1 OFF switch, 1 ON switch): -1; higher = weaker reporter binding
Method in brief: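 Apparent KD, taken as the median over clusters for each design, was obtained by curve-fitting normalised cluster fluorescence. Designed RNA switches had been transcribed on Illumina chips by stalled E. coli RNA polymerase and titrated with SNAP-549-labelled MS2 coat protein, doubling from 0.7 or 1.5 nM to 3 µM.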

[1] = Eterna round: R95, input ligand: FMN 200 uM
[2] = Eterna round: R95, input ligand: microRNA oligo, concentration not stated
[3] = Eterna round: R95, input ligand: none
[4] = input ligand: microRNA oligo, concentration not stated

Sequence | apparent KD of MS2 coat protein [1] [nM] | apparent KD of MS2 coat protein [2] [nM] | apparent KD of MS2 coat protein [3] [nM] | apparent KD of MS2 coat protein (input ligand: FMN 200 uM) [nM] | apparent KD of MS2 coat protein [4] [nM] | apparent KD of MS2 coat protein (input ligand: none) [nM]
UUACGGCGGAUCGUGGCUUUUUGCUCGUCUUGUGCUACAACAUGAGGAUCACCCAUGUAGAGGUGAUCCGUUGUAUU [Grok-var2-19 mod JAL] (puzzle: Sensor v3, turn-off variant 2) | 92.4 | 22.3 | 120 | – | – | –
UUAGAUAGGUCAGGAUAUCGAUGAUUGAAUUGUAUGAUUUACAUGAGGAUCACCCAUGUUUUGUACGAGAAGGGACGUUAGUUU [JR_ExcNG2_Sub019] (Eterna round: R96, puzzle: Exclusion NG 2) | – | – | – | 25.3 | 26.1 | 33.5
UUAGCUUCAGGAUAUACAGUGGGCUGGGAUCUAAAGAUCAAACAUGAGGAUCACCCAUGUAGAAGGGAACGGAA [Eternabot (L2) Solution 32] (Eterna round: R97, puzzle: Exclusion 2) | – | – | – | 380 | – | 145
UUAGUUGGAGGAUAUACGCCGUUUGACAUGAGGAUCACCCAUGUAGAGGCUUAUGUCAAUGUAGAAGGCCGUUUGG [Eternabot (L2) Solution 12] (Eterna round: R97, puzzle: Exclusion 5) | – | – | – | 26.3 | – | 18.7
UUAUAAAGUGUGAGGAUAUGCUGGUCGAUAGAUCAGCAGAAGGCACAUGAGGAUCACCCAUGUAAUAUAUUUUU [Mat - Exclusion 4 - JL Mod - D44] (puzzle: Brourd's mod of Exclusion 4) | – | 45.1 | – | – | – | –
UUAUGGCGAGAGGAUAUUCUGCUACGGCCCGGAGAAGAAGGUUUGACAUGAGGAUCACCCAUGUGGUCGCUCCU [Eternabot (L2) Solution 29] (Eterna round: R97, puzzle: Exclusion 6) | – | – | – | 138 | – | 238
UUAUGUGCGAGAGGAUAUCGUGUACAAAGUACACGAGAAGGCUUCACAUGAGGAUCACCCAUGUACCGAGGUGAAACACCUUGA [Omei Exc(NG)1 Bv7] (Eterna round: R96, puzzle: Exclusion NG 1) | – | – | – | 660 | 476 | 887
UUAUUAAUUAAGACUGCAAGAUCACAUGAGGAUCACCCAUGUCAGGAUAUCAGCUCGUGUAGAGCUGAGAAGGGACAAGCAGUC [ExNG3/15-A3] (Eterna round: R96, puzzle: Exclusion NG 3) | – | – | – | 314 | 97.5 | 123
UUAUUACAAGCAAGAUCCUACAUGAGGAUCACCCAUGUGCUCGUCUUAUAAGGUACAGUGACGAAAGUCACAGUACC [Sensor 3, v1 - 00] (puzzle: Sensor v3, turn-off variant 1) | 204 | 138 | 221 | – | – | –
UUAUUAUAUGAAGGAUAUACUUAACAUGAGGAUCACCCAUGUGGUGUUGUGAGUGAGUGAGUUUAGUAGAAGGUCAAUUCUUUU [JMF's solution 93] (Eterna round: R96, puzzle: Exclusion NG 2) | – | – | – | – | 418 | –
UUAUUAUAUGUAGGAUAUGCAUAUUAUUAUUAUGCAGAAGGACAUGAGGAUCACCCAUGUAUAUUAUUAUUAUAUAUUAUGUAU [Title] (Eterna round: R96, puzzle: Exclusion NG 1) | – | – | – | – | 27.5 | –
UUAUUCAGAGGAUAUGCGCAUAGAUAAGACUUUUUUUCUUAACAUGAGGAUCACCCAUGUAGAAGGCUGUAAUA [Ex2 #57] (Eterna round: R97, puzzle: Exclusion 2) | – | – | – | 19.8 | – | 18.4
UUAUUGGUUGUGAGGAUAUCGGAUAGAUAGAUAUUCGAGAAGGCACAUGAGGAUCACCCAUGUGUGAUUAGAAA [JR_BMEx4_Sub048] (Eterna round: R97, puzzle: Brourd's mod of Exclusion 4) | – | – | – | 193 | – | 25.9
UUAUUGUGUGUAGGAUAUGCGUGUUAUUAUUAUGCAGAAGGACAUGAGGAUCACCCAUGUGUAUUGUUAUUAUAUAUUAUAUAU [Title] (Eterna round: R96, puzzle: Exclusion NG 1) | – | – | – | 48.2 | 21.2 | 27
UUCAGGAGUCGAGGAUAUUUGCAGACGACAUGAGGAUCACCCAUGUGGUUAGCAUAGUCUUCAGCAGAGAAGGCGACCAACGAG [Eternabot solution 20] (Eterna round: R96, puzzle: Exclusion NG 2) | – | – | – | 171 | 40 | 40.3
UUCAUGUGAGGAUAUGUGUACUGUUUUUUGUUUAGAUGUACACAGAAGGCACAUGAGGAUCACCCAUGUAGUAC [Ex4 - 3 - 32] (puzzle: Exclusion 4) | – | 30 | – | – | – | –
UUCCUACUUGAGGAUCACCCAAGUCAGGAUAUCCAUAACCGACACUCUUUUCGGAGCGGGAGAAGGGACUUGGC [Arbedi] (Eterna round: R97, puzzle: Exclusion 1) | – | – | – | 119 | – | 52.9
UUCCUCAGCUAGGAUAUCAAGGCACCACCCUAAUGAGAAGGAGCAACAUGAGGAUCACCCAUGUGGGUUUCUUA [Aterre] (Eterna round: R97, puzzle: Exclusion 6) | – | – | – | 143 | – | 54.9
UUCCUCGUUGUGAGGAUAUCGUCCGUGUUUUGUUACGAGAAGGCACAUGAGGAUCACCCAUGUUACUUGAUGUU [JR_BMOE4_Sub073] (Eterna round: R96, puzzle: Brourd's mod of Exclusion 4) | – | – | – | 150 | 19 | 23.3
UUCCUCGUUGUGAGGAUAUCGUCCGUGUUUUGUUACGAGAAGGCACAUGAGGAUCACCCAUGUUACUUGAUGUU [JR_BMOE4_Sub073] (puzzle: Brourd's mod of Exclusion 4) | – | 18.9 | – | – | – | –
UUCGUGCAGCUUUGCUGUACGAGUACAUGAGGAUCACCCAUGUAGGAUAUGGUACGCUUUGCGUGCUAGAAGGAUAUGUGUAGC [salish99_ExNG3_r04_504] (Eterna round: R96, puzzle: Exclusion NG 3) | – | – | – | – | 25.7 | –
UUCGUGCAGCUUUGCUGUACGCGUACAUGAGGAUCACCCAUGUAGGAUAUGGUACGCAAAGCGUGCUAGAAGGAUAUGGAGAGG [Mat - Exclusion NG 3 - Mod of JL - D81] (Eterna round: R96, puzzle: Exclusion NG 3) | – | – | – | 11.7 | 8.08 | 13.1
UUCUUAUAUGAAGGAUAUACUUAACAUGAGGAUCACCCAUGUGGUGUUGUGAGUGAGUGAGUUUAGUAGAAGGUCAAUUCUUUU [JMF's solution 95] (Eterna round: R96, puzzle: Exclusion NG 2) | – | – | – | 818 | 326 | 355
UUCUUGGCAGGAUAUGCUCUUUUAGACAUGAGGAUCACCCAUGUGUUUAUUCUUUUUUUUGCAGAAGGGCCUUAAU [JR_E5_Sub044] (Eterna round: R96, puzzle: Exclusion 5) | – | – | – | 176 | 68.6 | 98.1
UUCUUGGCAGGAUAUGCUCUUUUAGACAUGAGGAUCACCCAUGUGUUUAUUCUUUUUUUUGCAGAAGGGCCUUAAU [JR_E5_Sub044] (puzzle: Exclusion 5) | – | 87.9 | – | – | – | –
